In patent US20210355235A1, “Compositions and Methods For Treating Cancer with Anti-Renalase antibodies and Anti-PD1 antibodies” (YALE UNIVERSITY, priority 2017, published 2021):
Entries after “also recorded” stand apart in the source; their conditions may differ. Read-outs that look alike come from different tables or passages of the source.

Columns and labels:
[1] = system: renalase-1 and renalase-2; test: renalase isoform specificity of the antibodies (ELISA / hybridoma screening); type: binding, human; conditions: renalase-1 vs renalase-2
Experimental: Peptides were used as immunogens. The peptides generated ranged from 9 to 21 amino acids and corresponded to regions of the renalase-1 and renalase-2 proteins. […] Each peptide was conjugated to the adjuvant KLH via the cysteine and used to immunize 6 rabbits. Antiserum collected from each animal was screened for anti-renalase antibody titer by ELISA assay using both the relevant peptide (BSA-conjugate) or full length renalase-1 or 2. The antisera were also tested for their ability to detect endogenous renalase in tissue lysates by western blot. Using these screening criteria the animals producing antibodies with the preferred characteristics were selected. In some examples and for some peptides, several animals produced antibodies with the required specificity. […] Polyclonal antibodies raised against all of the peptides were generated by purification of total IgG from terminal bleeds by protein G chromatography followed by further purification on peptide affinity chromatography. Further and using standard procedures, lymphocytes from the spleens of selected animals were fused to myeloma cells for hybridoma generation. The hybridoma supernatants were screened for binding to both the peptides against which they were raised and secondarily screened against whole renalase protein. Selected hybridomas were sub-cloned and expanded for antibody purification. The monoclonal antibodies were purified from conditioned hybridoma culture supernatant by protein A affinity chromatography.

melanoma cell lines = test: melanoma cells in culture, viability / growth; type: cell-based, human
Experimental: Total cell number and percentage of live cells were assessed by trypan blue exclusion, and cells were counted using a BioRad TC10 automated cell counter. For additional studies, cell viability was determined using WST-1 reagent (Roche Diagnostics, Indianapolis, Ind., USA) according to the manufacturers' instruction. Absorbances were read using a microplate reader (Power Waves XS, BioTek Instruments, Winooski, Vt., USA).

A375.S2 xenograft tumors = type: in vivo
Experimental: Briefly, tumor tissues were formalin-fixed, paraffin-embedded and cut into 5-m sections on glass slides. The slides were de-paraffinized and hydrated, followed by antigen retrieval in a pressure cooker containing 10 mM sodium citrate, pH6 buffer. The sections were blocked in 3% hydrogen peroxide for 30 min and 2.5% normal horse serum in PBS/0.1% Tween20 for 1 h followed by incubation with primary antibody and isotype control IgG overnight at 4° C. The following antibodies were used in this study: m28-RNLS at 500 ng/ml; goat polyclonal anti-RNLS at 250 ng/ml (Abcam, ab31291); rabbit monoclonal anti-CD68 (BDBioscience, 1:100); rabbit monoclonal anti-CD163 (AbD Serotec, 1:100); rabbit monoclonal anti-CD86 (Abcam, 1:100); rabbit monoclonal anti-Ki67 (Vector Lab, VP-RM04, 1:100); rabbit monoclonal anti-p21, […], and total Stat3 (Cell Signaling Technologies, #2947, 1:100, #9145, 1:400, and #4904, 1:400, respectively). ImmPRESS peroxidase-anti-rabbit IgG (Vector Laboratories, Burlingame, Calif., USA) was used to detect primary antibodies. […] Slides were observed and photographed using an Olympus BX41 microscope and camera (Olympus America Inc, Center Valley, Pa., USA).
Female athymic, 18-20 g nude mice (nu/nu) were obtained from Charles River (Willimantic, Conn.) and housed in microisolator cages, with autoclaved bedding in a specific pathogen-free facility, with a 12-h light/dark cycle.
Xenograft tumors were established by subcutaneous injection of A375.S2 cells (2×10^6 in 100 μl of PBS, pH 7.6). When the tumors reached a volume of 50-100 mm^3, the mice were divided into a control group (n=14 treated with rabbit IgG, 40 μg by intraperitoneal injection (IP) once weekly, and 40 ug subcutaneously (SQ) around the tumor site every 3 days), and an experimental group (n=14) that received m28-RNLS (40 μg IP, once weekly, and 40 ug SQ, every 3 days). Tumor size was measured with digital calipers and volume was calculated according to the formula (length×width^2)×π/2.
At the end of the study, the mice were sacrificed, the tumors were excised and immediately snap-frozen in liquid nitrogen and stored at −80° C. Apoptosis was examined using the TUNEL assay (Roche in situ Apoptosis Detection System), according to the manufacturer's instructions. Sections were examined by light microscopy and the apoptosis index was determined by counting ≥1000 cells in 10 randomly selected high-power fields (×200 magnification).

Panc1 cells = test: FACS analysis of apoptosis and cell cycle; type: cell-based, human; conditions: 30 μg/ml
Experimental: For cell cycle analysis, cultured cells were dissociated using 10 mM EDTA, fixed with ice-cold 70% ethanol, digested with RNAse A, and stained with propidium iodide. Propidium staining was detected using a BD FACSCalibur flow cytometer (BD Biosciences, San Jose, Calif., USA), and analyzed using CellQuest software.
Apoptosis was detected and quantified as previously done (Guo et al., 2012 Cancer Science. 103(8):1474-80). In brief, cells were stained with FITC-labeled Annexin-V and propidium iodide according to the manufacturer's instructions (Bender MedSystems, Burlingame, Calif., USA). At least 20,000 events were collected on a BD FACSCalibur flow cytometer (BD Biosciences, San Jose, Calif., USA) and analyzed using CellQuest software.

[2] = system: PDACC (pancreatic ductal adenocarcinoma cells); test: PDACC viability with anti-RNLS antibodies, WST-1; type: cell-based, human; conditions: 72 hrs
Experimental: FIG. 25, comprising FIGS. 25A through 25E, is a series of charts and images showing that inhibition of RNLS signaling is cytotoxic to cancer cells in vitro and in vivo. FIG. 25A is a chart showing relative cell viability following transient transfection of Panc1 cells using a RNLS-specific siRNA, or a non-specific control siRNA, and cell viability assayed 96 h later using the WST-1 reagent; n=6, ** indicates p<0.001. FIG. 25B is a chart showing relative cell viability when cells were treated with indicated antibodies for 72 hrs and cell viability determined using WST-1; m28-RNLS and m37-RNLS: monoclonal antibodies raised against RNLS peptide RP220, ab31291: Abcam polyclonal antibody raised against a partial sequence of RP-220; n=6, * indicates p<0.005. […] FIG. 25D is a chart showing tumor volume increase after athymic nude mice received subcutaneous injection of Panc1 cells transduced with RNLS shRNA (sh-RNLS) or control (sh-Control); tumor volume measured every […] for up to 30 days, n=6 each; * indicates p<0.05. FIG. 25E is chart showing tumor volume increase after nude mice were xenografted with BxPC3; tumor volume measured prior to treatment every 3-4 days with 2 mg/kg of either rabbit IgG as a negative control or with m28-RNLS, n=10, * indicates p<0.05.
Cell viability was assessed by trypan blue exclusion, and cells were counted using a BioRad TC10 automated counter.

[3] = immunofluorescence / western blot

B1: m28-RNLS: rabbit anti-renalase monoclonal raised against RNLS peptide RP-220; heavy chain SEQ ID NO:9, light chain SEQ ID NO:10 (antibody)
heavy: METGLRWLLLVAVLKGVQCQSVEESGGRLVTPGTPLTLTCTVSGFSLSSFAVGWVRQAPGKGLEYIGIISSVGITRYASWAAGRFTISKTSTTVDLKITSPTTEDTATYFCARYGYSGDVNRLDLWGQGTLVTVSSGQPKAPSVFPLAPCCGDTPSSTVTLGCLVKGYLPEPVTVTWNSGTLTNGVRTFPSVRQSSGLYSLSSVVSVTSSSQPVTCNVAHPATNTKVDKTVAPSTCSKPTCPPPELLGGPSVFIFPPKPKDTLMISRTPEVTCVVVDVSQDDPEVQFTWYINNEQVRTARPPLREQQFNSTIRVVSTLPIAHQDWLRGKEFKCKVHNKALPAPIEKTISKARGQPLEPKVYTMGPPREELSSRSVSLTCMINGFYPSDISVEWEKNGKAEDNYKTTPAVLDSDGSYFLYSKLSVPTSEWQRGDVFTCSVMHEALHNHYTQKSISRSPGK
light: MDTRAPTQLLGLLLLWLPGATFAQVLTQTASPVSAAVGGTVTINCQASQSVYDNNNLAWYQQKPGQPPKQLIYGASTLASGVSSRFKGSGSGTQFTLTISGVQCDDAATYYCLGEFSCSSADCFAFGGGTEVVVKGDPVAPTVLIFPPSADLVATGTVTIVCVANKYFPDVTVTWEVDGTTQTTGIENSKTPQNSADCTYNLSSTLTLTSTQYNSHKEYTCKVTQGTTSVVQSFNRGDC
modifications: 1D-28-4 full length heavy chain amino acid; 1D-28-4 full length light chain amino acid
- renalase-type specificity [1]: recognize renalase-1 and renalase-2
- melanoma cell viability / growth in culture (melanoma cell lines): decreased the viability of all (total of 5) melanoma cell lines tested
- melanoma cell viability / growth in culture (melanoma cell lines; listed as 1D-28-4): inhibits melanoma cells in culture
- number of CD163+ TAMs (A375.S2 xenograft tumors; immunofluorescence): considerable decrease; also recorded: decreases
- RNLS protein expression in tumors (A375.S2 xenograft tumors; [3]): dramatic reduction; also recorded: decreases; also recorded: marked reduction
- total and phosphorylated STAT3 (p-Y705-STAT3) in tumors (A375.S2 xenograft tumors; [3]): significantly decreased; also recorded: marked reduction
- ratio of CD86+ to CD163+ TAMs (A375.S2 xenograft tumors; mouse, in vivo): increases
- TUNEL positive cells (apoptosis) (A375.S2 xenograft tumors; n=14, control 4.3±0.2): 13.3±0.6 positive cells
- p21 positive cells (cell cycle regulator, IHC) (A375.S2 xenograft tumors; n=14, control 12.2±1.0): 24.2±2.4 positive cells
- Ki67 positive cells (cellular proliferation marker, IHC) (A375.S2 xenograft tumors; n=14, control 35.1±2.3): 13.4±3.0 positive cells/high power field
- human (tumor) RNLS expression in tumor mass (A375.S2 xenograft tumors; qPCR, human specific primers): without affecting
- mouse (endogenous) RNLS expression in tumor mass (A375.S2 xenograft tumors; qPCR, mouse specific primers): significant reduction
- toxicity (overall animal health and activity) (A375.S2 xenograft tumors; throughout the study): did not appear to be toxic
- tumor volume (A375.S2 xenograft tumors; vs control rabbit IgG, 40 μg IP weekly and 40 ug SQ every 3 days): decreased tumor volume at all points tested
- cell cycle (FACS) (Panc1 cells): pre-G2 cell cycle arrest
- apoptosis (FACS) (Panc1 cells; 4 days): caused apoptosis
- PDACC growth / viability [2]: inhibitory effects
